Measurements published in patent US7288381 (PHADIA, dated 2007).

Each binder was assayed against T1, β-gal alone (λgt 11 phage control proteins) (UniProt P00722 2-1024 = β-galactosidase) (assay: dot blot of β-gal fusion proteins, anti-human Fab detection).
T1 construct: Negative control dot; also called β-gal alone (4); λgt 11 phage control proteins (4)
Procedure: Expression of Recombinant Fragments of the Phl p 2 Allergen for Mapping of the Binding Sites of the Human IgE Fabs Lambda gt11 phage clones expressing β-galactosidase fused complete Phl p 2 and Phl p 2 fragments were generated as described (8). E. coli Y1090 were plated as confluent lawn onto LB plates containing 100 mg/l ampicillin (19). Two µl aliquots of phage lysates containing >10^6 plaque-forming units of each phage clone were dotted onto the E. coli lawn in defined order and plates were incubated at 43° C. until plaques became visible. The synthesis of recombinant protein was induced by overlay with 10 mM IPTG-soaked nitrocellulose filters (Schleicher& Schuell, Dassel, Germany) for additional 4 hours The clones which reacted with the IgE Fabs were identified by immunoscreening. For this purpose filters were washed twice for 5 min and once for 30 min with TBST containing 0.5% w/v BSA at roomtemperature and then probed overnight with E. coli extracts containing anti-Phl p 2 Fab and, for control purposes, with extracts from E. coli transformed with the empty pComb 3H plasmid at 4° C. After washing, the Fabs were detected with an alkaline phospatase-coupled goat anti-human Fab antiserum diluted 1:5000 in TBST/0.5% w/v BSA.
A Recombinant Fragment Comprising the N-terminal 64 Amino Acids of Phl p 2 Contains the Binding Site for the IgE Fabs In order to determine the binding site for the rPhl p 2-specific IgE Fabs, nitrocellulose-dotted complete β-gal-fused rPhl p 2 allergen (96 aa), a N-terminal rPhl p 2 fragment comprising the first 64 aa portion (1-64) and a 69 aa long C-terminal rPhl p 2 fragment (28-96 aa) were exposed to the Fabs (FIG. 2A). […] The N-terminal and C-terminal fragment have been indicated in the model (FIG. 2B).

T1 sequence (P00722 2-1024 limits assumed): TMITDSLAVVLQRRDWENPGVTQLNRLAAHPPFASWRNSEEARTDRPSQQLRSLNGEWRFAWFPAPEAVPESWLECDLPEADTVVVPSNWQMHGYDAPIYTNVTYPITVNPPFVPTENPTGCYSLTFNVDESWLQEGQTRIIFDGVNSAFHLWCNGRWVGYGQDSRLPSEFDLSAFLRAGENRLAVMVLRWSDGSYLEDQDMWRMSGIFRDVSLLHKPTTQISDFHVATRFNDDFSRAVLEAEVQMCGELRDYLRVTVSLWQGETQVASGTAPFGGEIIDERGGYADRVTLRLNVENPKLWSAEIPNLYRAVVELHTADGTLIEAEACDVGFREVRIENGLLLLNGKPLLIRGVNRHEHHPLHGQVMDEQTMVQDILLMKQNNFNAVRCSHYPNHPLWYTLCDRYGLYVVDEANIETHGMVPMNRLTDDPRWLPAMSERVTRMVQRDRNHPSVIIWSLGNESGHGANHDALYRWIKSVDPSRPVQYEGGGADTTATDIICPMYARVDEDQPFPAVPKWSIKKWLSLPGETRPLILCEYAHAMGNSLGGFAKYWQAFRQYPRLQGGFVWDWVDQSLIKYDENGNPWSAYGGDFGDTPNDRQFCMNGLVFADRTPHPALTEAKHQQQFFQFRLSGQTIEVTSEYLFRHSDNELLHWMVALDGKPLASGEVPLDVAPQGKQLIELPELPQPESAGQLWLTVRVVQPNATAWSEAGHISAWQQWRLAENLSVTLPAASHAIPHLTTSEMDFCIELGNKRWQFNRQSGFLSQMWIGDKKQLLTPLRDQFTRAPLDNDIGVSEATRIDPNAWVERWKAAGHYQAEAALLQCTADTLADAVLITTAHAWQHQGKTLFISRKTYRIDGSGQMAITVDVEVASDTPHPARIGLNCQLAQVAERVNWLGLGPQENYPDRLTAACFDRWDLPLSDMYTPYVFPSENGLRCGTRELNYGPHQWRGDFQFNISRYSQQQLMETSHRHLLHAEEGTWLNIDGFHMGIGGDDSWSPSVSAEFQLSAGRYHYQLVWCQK

| Binder | binding result |
| --- | --- |
| Phl p 2-specific human IgE Fab, clone 94 (Fab, V domains shown, Human IgE Fab (heavy chain fragment Fd plus kappa light chain) expressed from pComb3H in E. coli and used as bacterial extract; they start at the Xho I / Sac I cloning sites; also called clone 94-derived IgE Fab; rPhl p 2-specific IgE Fab) VH: LESGPGLVKPAQTLSLSCAVSGGSIRSGGYYWSWIRQHPGKGLEWIGYIYHSGNTYYNPSLKSRIAMSVDTSENKFSLRLNSVTAADTAVYYCARLDGYTLDIWGQGTLVTVSS VL: ELTQSPSSLSASVGDRVTISCRASQRINTYLNWYQHKPGKAPKLLIYAASSLQSGVPSRFSGSGYGTDFTLTISSLQFEDFASYYCQESLSASYTFGQGTKVEIKR | no binding |
| Phl p 2-specific human IgE Fab, clone 60 (Fab, V domains shown, Human IgE Fab (Fd plus kappa light chain) expressed from pComb3H in E. coli and used as bacterial extract; also called rPhl p 2-specific IgE Fab; anti-Phl p 2 Fab) VH: LESGPGLVKPSQTLSLTCTVSGGSIRSGGYYWSWVRQPPGKGLEWIGNIYHSGNTYYNPSLKSRITMSVDTSKNHFSLRLTSVTAADTAVYYCARSDGYTLDNWGQGTLVTVSS VL: ELTQSPSSLSASVGDRVTITCRARQSISTYLNWYQQKPGKAPKLLIWSASNLQSGVPSRFSGSGSGTEFTLTISNLQFEDFASYYCQQSYTTLYTFGSGTKLEIKR | no binding |
| Phl p 2-specific human IgE Fab, clone 100 (Fab, V domains shown, Human IgE Fab (Fd plus kappa light chain) expressed from pComb3H in E. coli and used as bacterial extract; also called rPhl p 2-specific IgE Fab; anti-Phl p 2 Fab) VH: LESGPGLVKPSQTLSLTCTVSGGSIRSGGYYWSWIRQPPGKGLEWIGYIYHSGNTYYNPSLKSRVTMSVDTSKNHFSLRLSSVTAADTAVYYCARSDGYTLDNWGQGTLVTVSS VL: ELTQSPSSVSASVGDRVTITCRASQGISSWLAWYQHQPGKAPKLLIYSASSLQSGVPSRFSGSGYGTDFSLTISSLQFEDSATYYCQQANSFPYTFGQGTKVEIKR | no binding |
